Literature values in publication PMC4016011.

Biological target: neuronal nitric oxide synthase PDZ (UniProt P29475)
Sequence (P29475 17-99): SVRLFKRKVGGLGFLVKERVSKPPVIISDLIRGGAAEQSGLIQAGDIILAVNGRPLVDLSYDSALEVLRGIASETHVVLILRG

syntrophin PDZ, sequence (Q13424 87-170): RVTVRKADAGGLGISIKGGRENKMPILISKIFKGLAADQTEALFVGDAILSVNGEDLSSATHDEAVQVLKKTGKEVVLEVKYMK

syntrophin PDZ (from UniProt Q13424)
Kd: 600 nM
